Results on 6 molecules are retold here after publication PMC7469494 (Autophagy, 2019).

Substitutions are numbered along the chain they refer to. Names may count otherwise.

The chains are these.
B1: Vac8[40–515] (domain or fragment, S. cerevisiae, UniProt P39968 40-515, looked up)
chain: QLDFYSGGPLKALTTLVYSDNLNLQRSAALAFAEITEKYVRQVSREVLEPILILLQSQDPQIQVAACAALGNLAVNNENKLLIVEMGGLEPLINQMMGDNVEVQCNAVGCITNLATRDDNKHKIATSGALIPLTKLAKSKHIRVQRNATGALLNMTHSEENRKELVNAGAVPVLVSLLSSTDPDVQYYCTTALSNIAVDEANRKKLAQTEPRLVSKLVSLMDSPSSRVKCQATLALRNLASDTSYQLEIVRAGGLPHLVKLIQSDSIPLVLASVACIRNISIHPLNEGLIVDAGFLKPLVRLLDYKDSEEIQCHAVSTLRNLAASSEKNRKEFFESGAVEKCKELALDSPVSVQSEISACFAILALADVSKLDLLEANILDALIPMTFSQNQEVSGNAAAALANLCSRVNNYTKIIEAWDRPNEGIRGFLIRFLKSDYATFEHIALWTILQLLESHNDKVEDLVKNDDDIINGVRK
B2: Vac8[40–515]^N62R (domain or fragment, S. cerevisiae, UniProt P39968 40-515, looked up)
chain: B1 chain with N23R
B3: Vac8[40–515]^N60R,N62R (domain or fragment, S. cerevisiae, UniProt P39968 40-515, looked up)
chain: B1 chain with N21R, N23R
B4: Vac8[40–578] (domain or fragment, S. cerevisiae, UniProt P39968 40-578, looked up)
chain: QLDFYSGGPLKALTTLVYSDNLNLQRSAALAFAEITEKYVRQVSREVLEPILILLQSQDPQIQVAACAALGNLAVNNENKLLIVEMGGLEPLINQMMGDNVEVQCNAVGCITNLATRDDNKHKIATSGALIPLTKLAKSKHIRVQRNATGALLNMTHSEENRKELVNAGAVPVLVSLLSSTDPDVQYYCTTALSNIAVDEANRKKLAQTEPRLVSKLVSLMDSPSSRVKCQATLALRNLASDTSYQLEIVRAGGLPHLVKLIQSDSIPLVLASVACIRNISIHPLNEGLIVDAGFLKPLVRLLDYKDSEEIQCHAVSTLRNLAASSEKNRKEFFESGAVEKCKELALDSPVSVQSEISACFAILALADVSKLDLLEANILDALIPMTFSQNQEVSGNAAAALANLCSRVNNYTKIIEAWDRPNEGIRGFLIRFLKSDYATFEHIALWTILQLLESHNDKVEDLVKNDDDIINGVRKMADVTFERLQRSGIDVKNPGSNNNPSSNDNNSNNNDTGSEHQPVEDASLELYNITQQILQFLH
B5: Vac8[Δ19–33] (full-length Vac8 lacking the H1 helix, residues 19–33) (natural protein, S. cerevisiae, UniProt P39968 1-578, looked up)
chain: MGSCCSCLKDSSDEASVSYLEDKDQLDFYSGGPLKALTTLVYSDNLNLQRSAALAFAEITEKYVRQVSREVLEPILILLQSQDPQIQVAACAALGNLAVNNENKLLIVEMGGLEPLINQMMGDNVEVQCNAVGCITNLATRDDNKHKIATSGALIPLTKLAKSKHIRVQRNATGALLNMTHSEENRKELVNAGAVPVLVSLLSSTDPDVQYYCTTALSNIAVDEANRKKLAQTEPRLVSKLVSLMDSPSSRVKCQATLALRNLASDTSYQLEIVRAGGLPHLVKLIQSDSIPLVLASVACIRNISIHPLNEGLIVDAGFLKPLVRLLDYKDSEEIQCHAVSTLRNLAASSEKNRKEFFESGAVEKCKELALDSPVSVQSEISACFAILALADVSKLDLLEANILDALIPMTFSQNQEVSGNAAAALANLCSRVNNYTKIIEAWDRPNEGIRGFLIRFLKSDYATFEHIALWTILQLLESHNDKVEDLVKNDDDIINGVRKMADVTFERLQRSGIDVKNPGSNNNPSSNDNNSNNNDTGSEHQPVEDASLELYNITQQILQFLH
B6: tNvj1 (Nvj1 construct comprising residues 229–321) (domain or fragment, S. cerevisiae, UniProt P38881 229-321, looked up)
chain: NREKDCSSSSEVESQSKCRKESTAEPDSLSRDTRTTSSLKSSTSFPISFKGSIDLKSLNQPSSLLHIQVSPTKSSNLDAQVNTEQAYSQPFRY

Series [1] concerns the molecule itself. Description: SEC.
Series [2] deals with the molecule itself. Description: SEC. This is another data set of the same source. (Size exclusion chromatography separates by hydrodynamic size, large species first.)
The series “SAXS” deals with the molecule itself. The experiment in a line: SAXS.
The series “AUC” concerns the molecule itself. Description: AUC.
The target in the series “Vac8[40–578]” is B4. The experiment in a line: SAXS.
The series “Vac8[40–515]^N62R” concerns the target B2. Description: SEC.
The series “Vac8[40–515]^N60R,N62R” deals with B3. Description: SEC.
For the series “Vac8[40–515]”, the target named is B1. The experiment in a line: cross-linking.
A further series deals with T1, Vac8[40–515]^A51R (S. cerevisiae, UniProt P39968 40-515, A51R).
T1 sequence (looked up): B1 chain with A12R
Description: cross-linking.

As for B1, in the series “SEC [1]”, the binding result is reported as “binds”.
Same read-out and setting: the value for B2 was “binds”.
As to B3, the binding result in the series “SEC [2]” is “binds”.
Regarding B4, in the series “SAXS”, the binding result is listed as “binds”.
Take B5: the binding result in the series “AUC” is recorded as “binds”.
As to B6, the binding result with Vac8[40–578], with Vac8[40–515]^N62R, with Vac8[40–515]^N60R,N62R, with Vac8[40–515] and with Vac8[40–515]^A51R was “binds” in each case.
